Assay results: doi:10.1101/2024.07.15.603533 (bioRxiv, 2024)

B1: recombinant kinetoplastid membrane protein-11 (r-KMP-11), wild type (natural protein, Leishmania donovani)
chain: MATTYEEFSAKLDRLDQEFNRKMQEQNAKFFADKPDESTLSPEMREHYEKFERMIKEHTEKFNKKMHEHSEHFKQKFAELLEQQKAAQYPSK

Experiments:
[1] = target: the molecule itself; test: negative stain electron microscopy
[2] = target: B1; test: fluorescence correlation spectroscopy
[3] = target: the molecule itself; test: single-molecule photobleaching step analysis

Binder	stoichiometry N [1]	binding result [2]	stoichiometry N [3]
B1	4		
Alexa488-maleimide labelled r-KMP-11 S38C (natural protein, Leishmania donovani, Alexa 488 maleimide on the single cysteine (S38C); labeling percentage 86%) MATTYEEFSAKLDRLDQEFNRKMQEQNAKFFADKPDECTLSPEMREHYEKFERMIKEHTEKFNKKMHEHSEHFKQKFAELLEQQKAAQYPSK		binds	4
